# Measured values as given in the supplement of paper PMC10065799, “High-throughput profiling of sequence recognition by tyrosine kinases and SH2 domains using bacterial peptide display” (eLife, 2023).
# Experiments:
# [1] = tested on: AncSZ; experiment: phosphorylation enrichment, bacterial display (enrichment ratio); higher = better substrate or ligand; peptides without Tyr show the background
# [2] = target: EPHB1 (UniProt P54762); experiment: as above
# [3] = target: EPHB2 (UniProt P29323); experiment: as above
# Sequence of EPHB2 (P29323 whole entry, looked up): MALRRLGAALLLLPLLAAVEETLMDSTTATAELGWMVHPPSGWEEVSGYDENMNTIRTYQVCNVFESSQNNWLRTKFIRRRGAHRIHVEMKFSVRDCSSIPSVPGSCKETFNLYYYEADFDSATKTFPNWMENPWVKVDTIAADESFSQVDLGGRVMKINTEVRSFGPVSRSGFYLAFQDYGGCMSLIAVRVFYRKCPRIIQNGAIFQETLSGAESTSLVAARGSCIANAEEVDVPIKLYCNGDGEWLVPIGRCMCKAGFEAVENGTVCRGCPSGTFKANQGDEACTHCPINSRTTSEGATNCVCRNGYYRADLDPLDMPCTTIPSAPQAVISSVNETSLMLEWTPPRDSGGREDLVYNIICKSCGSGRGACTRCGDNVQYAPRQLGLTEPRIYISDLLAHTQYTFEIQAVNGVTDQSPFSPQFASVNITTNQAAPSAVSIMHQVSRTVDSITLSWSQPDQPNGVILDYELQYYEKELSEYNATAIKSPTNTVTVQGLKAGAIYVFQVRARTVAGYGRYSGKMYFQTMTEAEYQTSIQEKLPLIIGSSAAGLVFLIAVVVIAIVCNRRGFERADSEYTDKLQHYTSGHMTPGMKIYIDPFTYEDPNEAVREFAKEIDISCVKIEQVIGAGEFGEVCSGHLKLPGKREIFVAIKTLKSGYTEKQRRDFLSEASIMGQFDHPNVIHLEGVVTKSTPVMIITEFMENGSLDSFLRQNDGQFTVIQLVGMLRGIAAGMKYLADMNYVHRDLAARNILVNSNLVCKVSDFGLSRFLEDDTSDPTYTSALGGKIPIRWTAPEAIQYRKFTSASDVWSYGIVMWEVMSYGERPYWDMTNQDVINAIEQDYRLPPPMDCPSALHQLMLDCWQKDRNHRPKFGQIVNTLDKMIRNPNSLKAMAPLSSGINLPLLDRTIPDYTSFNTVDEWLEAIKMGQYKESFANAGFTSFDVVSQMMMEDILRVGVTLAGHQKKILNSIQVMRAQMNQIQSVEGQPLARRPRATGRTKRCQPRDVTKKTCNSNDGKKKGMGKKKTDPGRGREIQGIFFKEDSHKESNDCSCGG
# [4] = target: FGFR1 (UniProt P11362); experiment: as above
# [5] = target: FGFR3 (UniProt P22607); experiment: as above
# Sequence of FGFR3 (P22607 whole entry, looked up): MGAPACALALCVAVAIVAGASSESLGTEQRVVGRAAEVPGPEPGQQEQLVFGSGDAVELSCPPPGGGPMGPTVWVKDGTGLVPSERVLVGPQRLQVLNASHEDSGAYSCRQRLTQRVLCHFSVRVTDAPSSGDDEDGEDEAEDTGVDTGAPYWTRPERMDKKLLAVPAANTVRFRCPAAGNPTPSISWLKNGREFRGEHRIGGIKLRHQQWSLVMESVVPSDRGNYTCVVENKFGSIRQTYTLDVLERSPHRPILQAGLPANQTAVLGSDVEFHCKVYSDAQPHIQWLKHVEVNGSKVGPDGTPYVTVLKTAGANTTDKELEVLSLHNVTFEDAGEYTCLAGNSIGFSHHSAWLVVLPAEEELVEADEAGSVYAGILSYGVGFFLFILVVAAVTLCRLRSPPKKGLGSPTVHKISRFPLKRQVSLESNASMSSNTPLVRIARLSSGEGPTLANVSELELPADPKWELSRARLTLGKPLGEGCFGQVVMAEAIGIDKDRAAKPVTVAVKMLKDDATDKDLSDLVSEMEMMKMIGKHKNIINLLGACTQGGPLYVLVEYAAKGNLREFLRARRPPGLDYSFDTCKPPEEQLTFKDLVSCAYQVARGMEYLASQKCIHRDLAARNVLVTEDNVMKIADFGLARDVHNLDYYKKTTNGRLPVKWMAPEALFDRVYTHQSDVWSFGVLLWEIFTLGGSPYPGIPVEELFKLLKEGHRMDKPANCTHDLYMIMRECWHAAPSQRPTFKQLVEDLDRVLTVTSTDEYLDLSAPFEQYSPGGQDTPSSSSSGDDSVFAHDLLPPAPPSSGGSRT
# [6] = tested on: Fer (mouse); experiment: as above
# [7] = target: Fes (UniProt P07332); experiment: as above
# Sequence of Fes (P07332 whole entry, looked up): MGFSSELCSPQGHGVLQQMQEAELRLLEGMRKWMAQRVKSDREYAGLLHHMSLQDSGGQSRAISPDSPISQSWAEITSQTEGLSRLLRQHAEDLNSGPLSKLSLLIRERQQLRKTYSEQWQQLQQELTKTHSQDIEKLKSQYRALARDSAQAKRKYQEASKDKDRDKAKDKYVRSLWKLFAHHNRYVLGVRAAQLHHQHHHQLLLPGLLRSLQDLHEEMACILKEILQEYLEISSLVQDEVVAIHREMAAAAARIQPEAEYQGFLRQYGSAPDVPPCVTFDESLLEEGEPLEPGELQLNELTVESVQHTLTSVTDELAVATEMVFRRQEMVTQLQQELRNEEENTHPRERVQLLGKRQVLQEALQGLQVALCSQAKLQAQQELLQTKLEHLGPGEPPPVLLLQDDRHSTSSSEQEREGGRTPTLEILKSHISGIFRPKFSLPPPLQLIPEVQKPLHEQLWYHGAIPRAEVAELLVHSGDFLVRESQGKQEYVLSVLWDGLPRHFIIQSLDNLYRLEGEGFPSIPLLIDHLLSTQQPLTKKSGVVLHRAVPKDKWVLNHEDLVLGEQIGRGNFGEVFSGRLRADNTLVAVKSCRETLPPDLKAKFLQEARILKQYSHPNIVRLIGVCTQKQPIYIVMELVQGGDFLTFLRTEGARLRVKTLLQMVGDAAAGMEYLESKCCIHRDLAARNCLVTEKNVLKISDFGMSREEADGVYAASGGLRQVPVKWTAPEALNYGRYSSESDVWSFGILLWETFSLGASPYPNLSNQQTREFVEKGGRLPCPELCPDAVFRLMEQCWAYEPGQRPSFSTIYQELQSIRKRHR
# [8] = target: Fyn (UniProt P06241); experiment: as above
# [9] = target: Hck (UniProt P08631); experiment: as above
# [10] = target: Jak2 (UniProt O60674); experiment: as above
# [11] = target: MERTK (UniProt Q12866); experiment: as above
# Sequence of MERTK (Q12866 whole entry, looked up): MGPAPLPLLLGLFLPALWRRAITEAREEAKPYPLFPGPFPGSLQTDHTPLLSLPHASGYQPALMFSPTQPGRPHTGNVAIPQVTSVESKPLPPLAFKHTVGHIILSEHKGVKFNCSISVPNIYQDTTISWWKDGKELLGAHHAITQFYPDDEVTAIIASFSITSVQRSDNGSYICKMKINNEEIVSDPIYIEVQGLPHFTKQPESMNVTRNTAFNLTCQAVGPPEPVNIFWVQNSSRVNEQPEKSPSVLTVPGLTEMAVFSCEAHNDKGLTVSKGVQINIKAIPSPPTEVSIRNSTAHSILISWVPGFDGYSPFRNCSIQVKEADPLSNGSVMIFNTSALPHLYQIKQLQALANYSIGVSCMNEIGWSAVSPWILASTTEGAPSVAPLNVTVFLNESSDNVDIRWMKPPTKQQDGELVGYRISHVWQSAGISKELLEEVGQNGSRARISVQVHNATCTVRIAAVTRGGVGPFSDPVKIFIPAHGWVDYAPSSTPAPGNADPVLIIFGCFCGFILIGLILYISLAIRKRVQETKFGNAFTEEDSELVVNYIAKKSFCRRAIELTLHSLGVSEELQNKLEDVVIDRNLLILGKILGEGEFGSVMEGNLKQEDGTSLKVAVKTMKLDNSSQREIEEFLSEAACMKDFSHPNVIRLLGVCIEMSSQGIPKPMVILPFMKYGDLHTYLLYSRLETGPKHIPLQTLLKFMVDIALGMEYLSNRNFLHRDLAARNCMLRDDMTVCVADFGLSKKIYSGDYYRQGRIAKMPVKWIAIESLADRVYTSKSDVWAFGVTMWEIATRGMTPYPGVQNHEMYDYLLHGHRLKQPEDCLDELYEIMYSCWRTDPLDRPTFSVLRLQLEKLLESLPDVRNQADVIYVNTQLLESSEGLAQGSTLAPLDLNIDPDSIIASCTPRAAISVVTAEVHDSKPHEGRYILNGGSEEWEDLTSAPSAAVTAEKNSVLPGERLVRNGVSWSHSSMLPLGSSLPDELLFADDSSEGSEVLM
# [12] = tested on: c-Abl (mouse); experiment: as above
# [13] = tested on: c-Src; experiment: as above
# [14] = target: Grb2 SH2 (UniProt P62993); experiment: SH2 binding enrichment of the phosphorylated peptide, bacterial display (enrichment ratio); higher = better substrate or ligand; peptides without Tyr show the background
# [15] = target: SHP2-C SH2; experiment: as above
# [16] = target: c-Src SH2; experiment: as above
# 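Throughout, for SH2 binding enrichment of the phosphorylated peptide, bacterial display: peptide library displayed on the E. coli surface as eCPX fusions, selected cells deep-sequenced, score is each peptide's frequency after selection divided by its frequency in the input.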
# 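Throughout, for phosphorylation enrichment, bacterial display: 11-residue human phosphosite peptides and single-mutation variants displayed on the E. coli surface, counted by deep sequencing, each peptide's frequency after selection divided by its frequency in the unselected input library; frequency after pTyr selection over input frequency; kinase dosed for 20-30% of maximal phosphorylation in three min.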
# Sequence of EPHB1 (P54762 whole entry, looked up): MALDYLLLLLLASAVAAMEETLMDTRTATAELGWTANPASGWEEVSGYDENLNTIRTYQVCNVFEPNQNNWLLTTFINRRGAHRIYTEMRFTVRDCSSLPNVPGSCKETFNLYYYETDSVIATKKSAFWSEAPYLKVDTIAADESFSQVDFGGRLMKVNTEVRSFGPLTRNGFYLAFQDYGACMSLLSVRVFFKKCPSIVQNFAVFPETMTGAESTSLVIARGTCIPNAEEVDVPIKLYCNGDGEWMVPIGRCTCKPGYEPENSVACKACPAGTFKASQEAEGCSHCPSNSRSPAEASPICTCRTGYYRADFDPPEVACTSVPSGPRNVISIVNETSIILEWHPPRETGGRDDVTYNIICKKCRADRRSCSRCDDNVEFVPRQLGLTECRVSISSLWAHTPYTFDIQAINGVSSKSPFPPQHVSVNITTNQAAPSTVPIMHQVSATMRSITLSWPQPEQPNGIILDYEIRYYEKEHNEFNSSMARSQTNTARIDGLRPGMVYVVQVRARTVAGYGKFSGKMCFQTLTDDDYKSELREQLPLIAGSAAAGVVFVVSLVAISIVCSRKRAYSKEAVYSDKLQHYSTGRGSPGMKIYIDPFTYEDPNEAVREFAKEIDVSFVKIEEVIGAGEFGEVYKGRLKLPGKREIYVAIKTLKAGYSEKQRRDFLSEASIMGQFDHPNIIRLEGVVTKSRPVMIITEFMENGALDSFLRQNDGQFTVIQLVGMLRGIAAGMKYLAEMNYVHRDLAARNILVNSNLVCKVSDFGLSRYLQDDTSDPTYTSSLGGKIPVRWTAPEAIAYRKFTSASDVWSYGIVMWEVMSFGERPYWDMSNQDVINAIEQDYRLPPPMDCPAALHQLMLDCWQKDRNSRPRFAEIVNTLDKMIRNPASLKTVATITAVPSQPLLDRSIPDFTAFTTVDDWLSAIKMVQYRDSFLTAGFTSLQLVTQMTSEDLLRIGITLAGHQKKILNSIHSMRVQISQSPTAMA
Sequence,SH2 binding enrichment [14],SH2 binding enrichment [15],SH2 binding enrichment [16],phosphorylation enrichment [1],phosphorylation enrichment [2],phosphorylation enrichment [3],phosphorylation enrichment [4],phosphorylation enrichment [5],phosphorylation enrichment [6],phosphorylation enrichment [7],phosphorylation enrichment [8],phosphorylation enrichment [9],phosphorylation enrichment [10],phosphorylation enrichment [11],phosphorylation enrichment [12],phosphorylation enrichment [13]
LARHMYDKEYY [MET_Y1230_D1228H],1.25,1.43,1.15,1.17,0.693,0.811,0.799,0.813,0.671,0.933,0.638,0.825,0.883,0.597,0.687,0.73
RVSSVYTRSTG [CCR5_Y339_A335V],1.17,1.1,0.517,1.18,0.945,0.867,0.936,0.945,0.984,1.22,1.1,1.13,1.02,0.665,0.873,0.853
NLNGKYNKPRA [ANGPTL3_Y417],1.3,0.875,1.18,0.51,0.294,0.353,0.344,0.525,0.372,0.613,0.659,0.362,0.8,0.471,0.696,0.334
DRPASYLDKVR [KRT17_Y98_L95P],0.828,0.664,0.502,0.674,0.446,0.396,0.465,0.456,0.405,0.636,0.398,0.432,0.556,0.51,0.624,0.474
FTRNFYVRAVL [CYBA_Y88_YF],0.581,0.658,0.448,1.36,0.831,0.713,0.635,1.11,0.689,1.58,0.529,0.565,1.54,0.503,1.57,0.554
EQPNPYMVLDI [ROCK2_Y1197_S1194P],0.869,0.785,0.732,1.15,0.653,0.571,1.13,1.09,2.87,1.07,2.46,1.23,1.06,2.06,0.575,3.03
EPSVPYRGTVF [GLI3_Y104],0.803,0.711,0.491,0.566,0.447,0.567,0.447,0.478,0.424,0.698,0.545,0.441,0.783,0.487,0.534,0.46
VVLGSYDRLRV [IFT172_Y260],0.724,0.863,1.17,0.584,0.442,0.451,0.45,0.582,0.45,0.75,0.404,1.11,0.546,0.341,0.452,0.405
RRAVKYLQMVG [AVPR2_Y117_C112R],0.84,0.695,0.525,1.13,0.815,1.01,0.52,0.629,0.431,0.978,0.778,0.674,0.887,0.727,0.961,0.737
ARGMEYLAEQK [MST1R_Y1198_G1195S],0.741,0.603,0.524,0.807,0.488,0.47,0.39,0.826,0.384,0.914,0.491,0.46,0.77,0.435,0.599,0.381
GELQGYDIMEP [MSH2_Y863_S860L],0.851,0.534,4.99,1.23,0.554,0.522,0.445,0.666,0.471,1.13,0.412,0.508,1.13,0.419,0.658,0.436
LRFDVYGGENE [STOX1_Y610_E608D_YF],0.943,0.798,0.523,1.09,0.596,0.644,0.509,0.629,0.594,1.29,0.539,0.498,1.22,0.405,0.793,0.528
QAKRKYQEASK [FES_Y156],1.16,0.701,0.602,0.46,0.342,0.459,0.495,0.441,0.481,0.772,0.544,0.489,0.429,0.418,0.491,0.488
RLFARYFQGDL [PDK3_Y337_YF],0.713,0.454,0.292,0.826,0.416,0.547,0.572,0.627,0.474,0.882,0.499,0.723,0.545,0.525,0.524,0.481
KELAPYDENRF [RPS19_Y48_W52R],0.896,1.39,0.605,1.05,0.594,0.553,0.48,0.79,0.579,1.36,0.485,0.512,1.05,0.5,0.983,0.577
KPLMPCMRFSR [SMARCE1_Y73_Y73C_YF],0.858,0.912,0.477,0.92,0.39,0.448,0.393,0.502,0.443,0.916,0.466,0.439,0.707,0.506,0.88,0.469
DQLVKHGVNPG [TMPO_Y127_Y127H],0.669,0.702,0.457,0.47,0.347,0.304,0.329,0.377,0.284,0.467,0.308,0.386,0.479,0.344,0.421,0.346
IINENYDYLKV [NUP98_Y1664_G1669V],0.86,0.687,0.595,1.38,1.05,1.31,1.54,1.16,2.24,1.1,0.538,1.89,0.956,0.919,0.664,0.625

# Now from value to sequence, other results behind:
SH2 binding enrichment [14],SH2 binding enrichment [15],SH2 binding enrichment [16],Sequence,phosphorylation enrichment [1],phosphorylation enrichment [2],phosphorylation enrichment [3],phosphorylation enrichment [4],phosphorylation enrichment [5],phosphorylation enrichment [6],phosphorylation enrichment [7],phosphorylation enrichment [8],phosphorylation enrichment [9],phosphorylation enrichment [10],phosphorylation enrichment [11],phosphorylation enrichment [12],phosphorylation enrichment [13]
0.762,3.03,0.391,SEEVNYATLTF [CLEC12B_Y7_T6N],1.1,1.98,1.46,1.25,1.4,1.45,1.37,1.33,1.66,1.12,0.905,1.38,1.41
0.982,1.1,0.719,IYLADYRIMEG [ALOX12B_Y318],1.14,1.26,1.07,2.63,2.46,0.48,1.1,0.738,0.812,1.03,3.75,0.978,1.16
0.762,0.886,0.472,DMDATYRPMFS [JUP_Y701_YF],0.831,0.52,0.448,0.498,0.649,0.465,0.99,0.592,0.762,0.752,0.461,0.763,0.624
1.12,0.925,21.8,EADRKYEEVAC [TPM3_Y163_R168C],1.17,0.622,0.609,0.598,0.777,0.61,1.41,0.574,0.681,1.04,0.545,0.862,0.53
0.783,0.801,0.422,LTQRTYMSENA [GPAA1_Y49],0.636,0.364,0.528,0.452,0.485,0.429,0.613,0.376,0.455,0.65,0.47,0.488,0.429
0.998,1.31,0.747,PKSLFYLLLKL [TRPC6_Y775],2.5,1.04,1.89,1.12,1.48,1.51,2.82,0.31,0.716,4.8,1.54,2.62,1.74
0.654,0.633,2.11,VEGISYDFIPT [CBS_Y308_G307S],1.28,0.578,0.568,0.564,0.941,0.96,0.982,0.529,1.9,0.984,2.96,0.754,0.596
0.637,0.579,0.485,QDEHGYISLCF [HSPB1_Y133_R136L],2.22,1.56,1.22,1.48,2.09,1.08,3.71,1.05,1.17,3.37,1.36,2.42,1.16
0.889,0.753,0.713,ESLSSYWESAK [APOC2_Y47],0.84,0.527,0.576,0.63,0.692,0.354,1.01,0.414,0.464,0.888,0.381,0.584,0.392
0.746,0.488,0.435,WRPFGYPCRRR [BCS1L_Y181_R183C],0.622,0.422,0.435,0.496,0.462,0.458,0.643,0.442,0.457,0.394,0.509,0.544,0.517
0.96,0.91,3.72,HVSISYDIPLT [GAB1_Y307_P311L],3.56,1.19,1.48,1.09,1.53,1.12,2.15,1.31,0.99,1.86,4.9,1.96,1.01
1.17,0.803,1.06,QRRLVYYEGGA [RYR1_Y245],0.788,0.402,0.606,0.497,0.602,0.536,1.11,0.369,0.421,0.682,1.15,0.728,0.583
0.82,1.47,0.513,IGKAGYTDKMV [ENO1_Y236_V240M],0.523,0.445,0.352,0.377,0.367,0.3,0.545,0.33,0.376,0.52,0.372,0.407,0.336
0.832,0.754,6.86,ISSLRYELLEE [TRPC6_Y896],1.24,0.63,0.573,0.52,0.764,0.544,1.17,0.511,0.597,0.832,0.533,0.621,0.397
4.17,0.814,0.743,AKKVFYVNETR [SHH_Y253_I255N],0.576,0.594,0.448,0.42,0.494,0.338,0.737,0.307,0.338,0.526,0.363,0.459,0.319
